The text below walks through data of article PMC6928932.

Assay [1] concerns the target human gastric mucin MUC6 (human (endogenous in gastric corpus tissue)) (UniProt Q6W4X9). The experiment in a line: far-Western, overlay or dot blot; as the overlay on fractions B12/C1, but with 30 mM EDTA and no added Ca2+.
Assay [2] concerns the target mucins (PAS-positive high-molecular-mass peak of human gastric extracts, containing MUC5AC and MUC6). The experiment in a line: SEC + native gel or EMSA; human gastric extracts (conventional extract, extract E1) on Superdex 75 HL, 20 mM Tris-HCl pH 7.0, 30 mM NaCl; fractions analysed by 1% AgGE and Western blot; semi-quantitative TFF2 content. For orientation: In EMSA bound probe runs differently from free probe, usually more slowly.

Chain of UniProt Q6W4X9 (Q6W4X9 23-2439): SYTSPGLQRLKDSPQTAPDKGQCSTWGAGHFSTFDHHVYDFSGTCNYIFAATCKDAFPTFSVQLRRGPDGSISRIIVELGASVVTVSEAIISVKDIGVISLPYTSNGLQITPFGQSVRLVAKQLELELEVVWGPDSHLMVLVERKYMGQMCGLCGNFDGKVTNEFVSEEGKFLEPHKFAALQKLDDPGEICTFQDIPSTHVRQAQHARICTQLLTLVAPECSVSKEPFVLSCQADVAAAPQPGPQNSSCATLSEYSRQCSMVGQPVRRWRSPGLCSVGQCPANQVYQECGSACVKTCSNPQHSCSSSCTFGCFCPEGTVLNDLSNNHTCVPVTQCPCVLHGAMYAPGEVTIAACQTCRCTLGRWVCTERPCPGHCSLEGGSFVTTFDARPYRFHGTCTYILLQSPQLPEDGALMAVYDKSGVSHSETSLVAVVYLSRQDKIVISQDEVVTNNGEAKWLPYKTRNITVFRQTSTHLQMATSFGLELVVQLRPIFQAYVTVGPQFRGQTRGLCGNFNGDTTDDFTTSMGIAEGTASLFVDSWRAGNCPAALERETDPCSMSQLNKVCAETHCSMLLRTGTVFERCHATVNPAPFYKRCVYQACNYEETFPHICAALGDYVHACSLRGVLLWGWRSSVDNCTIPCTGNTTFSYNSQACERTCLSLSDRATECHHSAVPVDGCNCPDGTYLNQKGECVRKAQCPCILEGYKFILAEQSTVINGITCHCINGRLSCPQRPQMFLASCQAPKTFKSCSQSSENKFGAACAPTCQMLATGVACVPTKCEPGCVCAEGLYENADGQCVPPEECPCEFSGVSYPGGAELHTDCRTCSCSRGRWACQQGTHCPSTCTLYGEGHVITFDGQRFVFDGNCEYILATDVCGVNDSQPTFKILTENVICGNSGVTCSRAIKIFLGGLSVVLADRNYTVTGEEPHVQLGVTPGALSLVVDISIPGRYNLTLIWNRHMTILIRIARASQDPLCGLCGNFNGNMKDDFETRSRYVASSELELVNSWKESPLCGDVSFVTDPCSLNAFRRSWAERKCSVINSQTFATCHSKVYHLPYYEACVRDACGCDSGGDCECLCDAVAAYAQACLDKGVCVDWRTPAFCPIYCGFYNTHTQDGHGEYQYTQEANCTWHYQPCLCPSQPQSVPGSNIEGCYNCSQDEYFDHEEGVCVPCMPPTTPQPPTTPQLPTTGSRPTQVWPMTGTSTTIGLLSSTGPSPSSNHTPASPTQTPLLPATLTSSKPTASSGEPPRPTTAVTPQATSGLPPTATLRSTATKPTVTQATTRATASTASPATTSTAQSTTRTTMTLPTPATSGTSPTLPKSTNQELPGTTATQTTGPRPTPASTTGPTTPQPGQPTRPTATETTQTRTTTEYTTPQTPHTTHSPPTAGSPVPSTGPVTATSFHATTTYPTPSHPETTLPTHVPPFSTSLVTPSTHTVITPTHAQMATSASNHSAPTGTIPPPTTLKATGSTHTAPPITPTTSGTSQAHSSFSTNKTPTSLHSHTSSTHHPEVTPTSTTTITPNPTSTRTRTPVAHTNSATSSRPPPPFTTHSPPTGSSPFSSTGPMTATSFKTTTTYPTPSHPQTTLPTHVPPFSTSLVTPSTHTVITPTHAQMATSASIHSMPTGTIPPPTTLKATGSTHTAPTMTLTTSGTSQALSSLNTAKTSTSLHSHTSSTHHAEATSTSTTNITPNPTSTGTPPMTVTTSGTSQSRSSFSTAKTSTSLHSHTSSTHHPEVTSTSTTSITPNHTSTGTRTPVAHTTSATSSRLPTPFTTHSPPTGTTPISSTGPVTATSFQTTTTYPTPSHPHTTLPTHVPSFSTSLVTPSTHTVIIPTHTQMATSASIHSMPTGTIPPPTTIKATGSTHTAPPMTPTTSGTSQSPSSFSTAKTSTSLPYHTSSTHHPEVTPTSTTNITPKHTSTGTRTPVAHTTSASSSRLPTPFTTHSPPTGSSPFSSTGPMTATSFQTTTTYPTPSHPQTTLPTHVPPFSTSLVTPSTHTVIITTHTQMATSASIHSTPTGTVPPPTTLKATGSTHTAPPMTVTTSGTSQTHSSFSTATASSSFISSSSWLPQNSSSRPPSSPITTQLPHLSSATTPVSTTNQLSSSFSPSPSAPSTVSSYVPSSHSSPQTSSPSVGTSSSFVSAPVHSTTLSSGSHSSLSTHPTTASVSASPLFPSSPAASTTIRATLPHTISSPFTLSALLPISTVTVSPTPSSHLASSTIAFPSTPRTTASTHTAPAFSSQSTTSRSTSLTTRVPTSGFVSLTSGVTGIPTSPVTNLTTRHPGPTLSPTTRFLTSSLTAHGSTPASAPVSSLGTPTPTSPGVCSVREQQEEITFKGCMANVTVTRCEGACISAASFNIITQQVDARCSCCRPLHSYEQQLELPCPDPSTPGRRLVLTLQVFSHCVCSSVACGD

“125I-labeled recombinant human glycosylated TFF2 (from UniProt Q03403 24-129) (natural protein)”: in assay [1], the relative amount of TFF2 bound with 30 mM EDTA turned out to be 10%.

B1: human gastric TFF2 (endogenous) (natural protein)
chain: EKPSPCQCSRLSPHNRTNCGFPGITSDQCFDNGCCFDSSVTGVPWCFHPLPKQESDQCVMEVSDRRNCGYPGISPEECASRKCCFSNFIFEVPWCFFPKSVEDCHY
modifications: mainly N-glycosylated, to a minor extent non-glycosylated
As for B1, the percent of TFF2 in the high-molecular-mass form (extract E1) in assay [2] was found to be 86%.
